# B1: full-length hemagglutinin (HA) from A/duck/Alberta/35/76(H1N1) virus (natural protein)
# chain 1: not shown
# chain 2: not shown
# Biological target: the molecule itself
# Assay: cryo-EM structure
protein,measurement,value
B1,stoichiometry N,3
